{"source": "the supplement of paper PMC7125110", "parents": {"B1": {"name": "glmS ribozyme (parent)", "chain": "AUAAAAGCGCCAGAACUACAGAAAUGUAGUUGACGAGGAGGAGGUUUAUCGAAUUUUCGGCGGAUGCCUCCAAA"}}, "settings_in_all_cases": "with glucosamine-6-phosphate", "key": {"[1]": {"variants_of": "B1", "assay": "self-cleavage kobs at 40 uM GlcN6P; higher = faster cleavage; RNA array", "outline": "(§1)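 A hybridised Cy3 probe tracked barcoded ribozyme variants, transcribed in situ by E. coli RNA polymerase on sequenced MiSeq chips, at 37 °C. The variants received 40 μM to 10 mM glucosamine-6-phosphate in HEPES/KCl/Mg(OAc)2 buffer. kobs came from decay fits and kcat and KM from weighted Michaelis–Menten fits.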"}, "[2]": {"variants_of": "B1", "assay": "self-cleavage kobs at 160 uM GlcN6P; higher = faster cleavage; RNA array", "outline": "as §1"}, "[3]": {"variants_of": "B1", "assay": "self-cleavage kobs at 640 uM GlcN6P; higher = faster cleavage; RNA array", "outline": "as §1"}, "[4]": {"variants_of": "B1", "assay": "self-cleavage kobs at 2500 uM GlcN6P; higher = faster cleavage; RNA array", "outline": "as §1"}, "[5]": {"variants_of": "B1", "assay": "self-cleavage kobs at 10000 uM GlcN6P; higher = faster cleavage; RNA array", "outline": "as §1"}}, "note": "± gives the standard error. This sample holds only a part of the variants without activity.", "data": [{"variant": "G9U C10G A48C A52G", "values": [{"measurement": "self-cleavage kobs at 40 uM GlcN6P", "setting": "[1]", "value": "< 1e-05", "unit": "s⁻¹"}]}, {"variant": "G44A G62A", "values": [{"measurement": "self-cleavage kobs at 40 uM GlcN6P", "setting": "[1]", "value": "< 1e-05", "unit": "s⁻¹"}, {"measurement": "self-cleavage kobs at 160 uM GlcN6P", "setting": "[2]", "value": "< 1e-05", "unit": "s⁻¹"}, {"measurement": "self-cleavage kobs at 640 uM GlcN6P", "setting": "[3]", "value": "< 1e-05", "unit": "s⁻¹"}, {"measurement": "self-cleavage kobs at 2500 uM GlcN6P", "setting": "[4]", "value": "< 1e-05", "unit": "s⁻¹"}, {"measurement": "self-cleavage kobs at 10000 uM GlcN6P", "setting": "[5]", "value": "< 1e-05", "unit": "s⁻¹"}]}, {"variant": "G43A C70G", "values": [{"measurement": "self-cleavage kobs at 40 uM GlcN6P", "setting": "[1]", "value": "< 1e-05", "unit": "s⁻¹"}, {"measurement": "self-cleavage kobs at 160 uM GlcN6P", "setting": "[2]", "value": "< 1e-05", "unit": "s⁻¹"}, {"measurement": "self-cleavage kobs at 640 uM GlcN6P", "setting": "[3]", "value": "< 1e-05", "unit": "s⁻¹"}, {"measurement": "self-cleavage kobs at 2500 uM GlcN6P", "setting": "[4]", "value": "< 1e-05", "unit": "s⁻¹"}, {"measurement": "self-cleavage kobs at 10000 uM GlcN6P", "setting": "[5]", "value": "< 1e-05", "unit": "s⁻¹"}]}, {"variant": "G35C C71U", "values": [{"measurement": "self-cleavage kobs at 40 uM GlcN6P", "setting": "[1]", "value": "< 1e-05", "unit": "s⁻¹"}, {"measurement": "self-cleavage kobs at 640 uM GlcN6P", "setting": "[3]", "value": "< 1e-05", "unit": "s⁻¹"}, {"measurement": "self-cleavage kobs at 2500 uM GlcN6P", "setting": "[4]", "value": "< 1e-05", "unit": "s⁻¹"}, {"measurement": "self-cleavage kobs at 10000 uM GlcN6P", "setting": "[5]", "value": "< 1e-05", "unit": "s⁻¹"}]}, {"variant": "U47C A48G C50G C70G", "values": [{"measurement": "self-cleavage kobs at 40 uM GlcN6P", "setting": "[1]", "value": "3.16e-05 ± 1.6e-05", "unit": "s⁻¹"}]}, {"variant": "G32U U45G C70A", "values": [{"measurement": "self-cleavage kobs at 160 uM GlcN6P", "setting": "[2]", "value": "< 1e-05", "unit": "s⁻¹"}, {"measurement": "self-cleavage kobs at 640 uM GlcN6P", "setting": "[3]", "value": "< 1e-05", "unit": "s⁻¹"}]}, {"variant": "G38U A48G G51U", "values": [{"measurement": "self-cleavage kobs at 40 uM GlcN6P", "setting": "[1]", "value": "< 1e-05", "unit": "s⁻¹"}, {"measurement": "self-cleavage kobs at 10000 uM GlcN6P", "setting": "[5]", "value": "< 1e-05", "unit": "s⁻¹"}]}, {"variant": "G7U G63A", "values": [{"measurement": "self-cleavage kobs at 40 uM GlcN6P", "setting": "[1]", "value": "< 1e-05", "unit": "s⁻¹"}, {"measurement": "self-cleavage kobs at 10000 uM GlcN6P", "setting": "[5]", "value": "< 1e-05", "unit": "s⁻¹"}]}, {"variant": "A39U C61A U65C", "values": [{"measurement": "self-cleavage kobs at 40 uM GlcN6P", "setting": "[1]", "value": "< 1e-05", "unit": "s⁻¹"}]}, {"variant": "C8G C11G G43A", "values": [{"measurement": "self-cleavage kobs at 160 uM GlcN6P", "setting": "[2]", "value": "< 1e-05", "unit": "s⁻¹"}, {"measurement": "self-cleavage kobs at 640 uM GlcN6P", "setting": "[3]", "value": "< 1e-05", "unit": "s⁻¹"}, {"measurement": "self-cleavage kobs at 2500 uM GlcN6P", "setting": "[4]", "value": "< 1e-05", "unit": "s⁻¹"}]}, {"variant": "G32U G43C", "values": [{"measurement": "self-cleavage kobs at 40 uM GlcN6P", "setting": "[1]", "value": "< 1e-05", "unit": "s⁻¹"}, {"measurement": "self-cleavage kobs at 160 uM GlcN6P", "setting": "[2]", "value": "< 1e-05", "unit": "s⁻¹"}, {"measurement": "self-cleavage kobs at 640 uM GlcN6P", "setting": "[3]", "value": "< 1e-05", "unit": "s⁻¹"}, {"measurement": "self-cleavage kobs at 2500 uM GlcN6P", "setting": "[4]", "value": "< 1e-05", "unit": "s⁻¹"}]}, {"variant": "U46G U56A", "values": [{"measurement": "self-cleavage kobs at 40 uM GlcN6P", "setting": "[1]", "value": "5.1e-05 ± 7.3e-06", "unit": "s⁻¹"}, {"measurement": "self-cleavage kobs at 640 uM GlcN6P", "setting": "[3]", "value": "0.000601 ± 0.00017", "unit": "s⁻¹"}, {"measurement": "self-cleavage kobs at 10000 uM GlcN6P", "setting": "[5]", "value": "0.00224 ± 0.00042", "unit": "s⁻¹"}]}, {"variant": "A12C G35U", "values": [{"measurement": "self-cleavage kobs at 40 uM GlcN6P", "setting": "[1]", "value": "< 1e-05", "unit": "s⁻¹"}, {"measurement": "self-cleavage kobs at 160 uM GlcN6P", "setting": "[2]", "value": "< 1e-05", "unit": "s⁻¹"}, {"measurement": "self-cleavage kobs at 640 uM GlcN6P", "setting": "[3]", "value": "< 1e-05", "unit": "s⁻¹"}, {"measurement": "self-cleavage kobs at 2500 uM GlcN6P", "setting": "[4]", "value": "< 1e-05", "unit": "s⁻¹"}, {"measurement": "self-cleavage kobs at 10000 uM GlcN6P", "setting": "[5]", "value": "< 1e-05", "unit": "s⁻¹"}]}, {"variant": "A6C G29C A36U C61U", "values": [{"measurement": "self-cleavage kobs at 40 uM GlcN6P", "setting": "[1]", "value": "< 1e-05", "unit": "s⁻¹"}, {"measurement": "self-cleavage kobs at 2500 uM GlcN6P", "setting": "[4]", "value": "< 1e-05", "unit": "s⁻¹"}, {"measurement": "self-cleavage kobs at 10000 uM GlcN6P", "setting": "[5]", "value": "< 1e-05", "unit": "s⁻¹"}]}, {"variant": "G13C G43A G63A A64G", "values": [{"measurement": "self-cleavage kobs at 40 uM GlcN6P", "setting": "[1]", "value": "< 1e-05", "unit": "s⁻¹"}, {"measurement": "self-cleavage kobs at 10000 uM GlcN6P", "setting": "[5]", "value": "< 1e-05", "unit": "s⁻¹"}]}, {"variant": "G29U A39G G59U C67U", "values": [{"measurement": "self-cleavage kobs at 160 uM GlcN6P", "setting": "[2]", "value": "< 1e-05", "unit": "s⁻¹"}, {"measurement": "self-cleavage kobs at 640 uM GlcN6P", "setting": "[3]", "value": "< 1e-05", "unit": "s⁻¹"}]}, {"variant": "A53U C70U", "values": [{"measurement": "self-cleavage kobs at 40 uM GlcN6P", "setting": "[1]", "value": "0.000741 ± 6.7e-05", "unit": "s⁻¹"}, {"measurement": "self-cleavage kobs at 160 uM GlcN6P", "setting": "[2]", "value": "0.00102 ± 0.00023", "unit": "s⁻¹"}, {"measurement": "self-cleavage kobs at 640 uM GlcN6P", "setting": "[3]", "value": "0.00682 ± 0.0013", "unit": "s⁻¹"}, {"measurement": "self-cleavage kobs at 2500 uM GlcN6P", "setting": "[4]", "value": "0.00471 ± 0.0013", "unit": "s⁻¹"}, {"measurement": "self-cleavage kobs at 10000 uM GlcN6P", "setting": "[5]", "value": "0.0335 ± 0.0084", "unit": "s⁻¹"}]}, {"variant": "G9C A48G", "values": [{"measurement": "self-cleavage kobs at 160 uM GlcN6P", "setting": "[2]", "value": "< 1e-05", "unit": "s⁻¹"}, {"measurement": "self-cleavage kobs at 640 uM GlcN6P", "setting": "[3]", "value": "< 1e-05", "unit": "s⁻¹"}, {"measurement": "self-cleavage kobs at 2500 uM GlcN6P", "setting": "[4]", "value": "< 1e-05", "unit": "s⁻¹"}, {"measurement": "self-cleavage kobs at 10000 uM GlcN6P", "setting": "[5]", "value": "< 1e-05", "unit": "s⁻¹"}]}, {"variant": "G32A A42G U56A C70A", "values": [{"measurement": "self-cleavage kobs at 160 uM GlcN6P", "setting": "[2]", "value": "< 1e-05", "unit": "s⁻¹"}]}, {"variant": "C10G C16G G40U", "values": [{"measurement": "self-cleavage kobs at 40 uM GlcN6P", "setting": "[1]", "value": "< 1e-05", "unit": "s⁻¹"}, {"measurement": "self-cleavage kobs at 2500 uM GlcN6P", "setting": "[4]", "value": "< 1e-05", "unit": "s⁻¹"}]}, {"variant": "G41C C67U", "values": [{"measurement": "self-cleavage kobs at 40 uM GlcN6P", "setting": "[1]", "value": "< 1e-05", "unit": "s⁻¹"}, {"measurement": "self-cleavage kobs at 160 uM GlcN6P", "setting": "[2]", "value": "< 1e-05", "unit": "s⁻¹"}, {"measurement": "self-cleavage kobs at 640 uM GlcN6P", "setting": "[3]", "value": "< 1e-05", "unit": "s⁻¹"}, {"measurement": "self-cleavage kobs at 2500 uM GlcN6P", "setting": "[4]", "value": "< 1e-05", "unit": "s⁻¹"}, {"measurement": "self-cleavage kobs at 10000 uM GlcN6P", "setting": "[5]", "value": "< 1e-05", "unit": "s⁻¹"}]}, {"variant": "A42G G62A", "values": [{"measurement": "self-cleavage kobs at 40 uM GlcN6P", "setting": "[1]", "value": "< 1e-05", "unit": "s⁻¹"}, {"measurement": "self-cleavage kobs at 160 uM GlcN6P", "setting": "[2]", "value": "< 1e-05", "unit": "s⁻¹"}, {"measurement": "self-cleavage kobs at 640 uM GlcN6P", "setting": "[3]", "value": "< 1e-05", "unit": "s⁻¹"}, {"measurement": "self-cleavage kobs at 2500 uM GlcN6P", "setting": "[4]", "value": "< 1e-05", "unit": "s⁻¹"}, {"measurement": "self-cleavage kobs at 10000 uM GlcN6P", "setting": "[5]", "value": "< 1e-05", "unit": "s⁻¹"}]}]}
